IntAct's records for PubMed 10230800

B1: Slowpoke-binding protein (Drosophila melanogaster (Fruit fly)), Q8IPH9 (parent)
chain: MFKFNKAAQQQRIDNRNSAVTGHDPFVRPPVPEKKVRNIMKKLHKANGLKRSNSAIEFDVSALTAANRRQIYSSNRSASSEQDNSDLSEHSEKSPLVSARLDNLARLFFSKSMPAETGSRDTIDSVLTTRPNIKYQYSALDSGNGIVERSPRERAQREKALNATQEWIQGANGRYEVIAHLDEIGSRHGKNWFLVTDASVRTDRLQTLLPLPPDCVAFEDLPPNECAREILMELLGSLHHPYIYPVLDLGFLRNSSYNYACLVTPFNSRGSLKDLIYKAQWNEPWARKYTRKPNGLPVSQVQRLGRQILEALLFLKERGFPLHGHLHSGNVILQNGAARLSGLENGLLGLSSRINAVMWSRSVTEIENVDIVCFGHLLYEMCTGQELTTPKPSMRVLEMELQHYPQIGQTRKQILEILGLIFEPPSGVCPSVEDLVLCDLFRSIDLRELRGPCFSTIKPSLSRSTLNLLQAVKKRQCASLGHSLSEANSPCTPPSTPHDRRTGVLPAPYEVFRMY
partner: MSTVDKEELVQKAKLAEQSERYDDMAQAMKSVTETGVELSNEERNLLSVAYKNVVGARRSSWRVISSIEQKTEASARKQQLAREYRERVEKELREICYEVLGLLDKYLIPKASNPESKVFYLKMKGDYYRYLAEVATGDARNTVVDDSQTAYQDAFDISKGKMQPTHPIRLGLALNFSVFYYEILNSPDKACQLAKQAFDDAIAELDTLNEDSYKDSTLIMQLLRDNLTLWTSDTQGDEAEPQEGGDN

Variants of: B1
Settings: with 1433z_drome 14-3-3zeta

effect of a mutation on the interaction | Variant
decreasing interaction strength | S54A;S79A
